Laboratory results from patent publication US20210347873A1 (SHANGHAI PHARMAEXPLORER, published 2021).

B1: L9G7 (antibody, human IgG1, V domains shown)
VH: QIQLVQSGAEVKKPGASVKVSCKASGYTFTSYGISWVRQAPGQGLEWMGWISAYNGNTNYAQKLQGRVTMTTDTSTSTAYMELRSLRSDDTAVYYCARTYYDILTGYYYYGMDVWGQGTTVTVSS
VL: EIVLTQSPGTLSLSPGERATLSCRTSQSVDTYLAWYQQKPGQAPRLLIYDASNRATGIPARFSGSGSGTDFTLTISSLEPEDFAVYYCQQRSNWPLTFGGGTKVEIK
B2: 111D10D6G3 (antibody, V domains shown)
VH: QVQLQQPGAELVKPGASVKMSCKASGYTFTRHWITWVKQRPGQGLEWIGDIFPGSGSINYNEKFKSEATLTVEKSSSTAYMQLSSLTSEDSAVYYCARGDVDVWGTGTTVTVSS
VL: DIQMTQSPSSLSASLGERVSLTCRASQEIRGYLSWLQQKPNGTIKRLIYAASTLDSGVPKRFSATRSGSDFSLTISSLESEDFADYYCLQYASYPFTFGSGTKLEIK
notes: Mouse hybridoma monoclonal antibody purified on Protein G
B3: 111D10D6G3 (antibody, V domains shown)
VH: B2 VH
VL: B2 VL
notes: Mouse hybridoma antibody purified on Protein G
B4: L1D12 (antibody, human IgG1, V domains shown)
VH: QVQLVQSGGGLVQPGGSLRLSCAASGFTVSSNYMSWVRQAPGKGLEWVSVIYSGGSTYYADSVKGRFTISRDNSKNTLYLQMNSLRAEDTAVYYCARGFHDILTGYGMDVWGQGTTVTVSS
VL: SSELTQDPAVSVALGQTVRITCQGDSLRNYYAGWYQQKPGQAPVLVIYGKNNRPSGIPDRFSGSSSGNTASLTITGTQAEDEADYYCSSRDNSGTHLVEFGGGTKLTVL
notes: also called LID12
B5: 8E7D9C7F5 (antibody, V domains shown)
VH: QVQLQQSGVELARPGASVKLSCKASGYTFTSYGISWVKQRTGQALEWIGEIYPRSGNTYYNEKFKGKATLTADKSSSTAYMELRSLTSEDSAVYFCARSGPITTLVATDYGMDYWGQGTSVTVSS
VL: DIVLTQSPASLAVSLGQRATISCRASKSVSTSSYSYMHWYQQKPGQPPKLLIKFASNLESGVPARFSGSGSGTDFTLNIHPVEEEDAATYYCQHSREFPYTFGGGTKLEIK
notes: as for B2
B6: 97A3C2H4 (antibody, V domains shown)
VH: EVKLVESGGGLVQPGGSLKLSCAASGFTFSTYTMSWVRQTPEKRLEWVAYISYGGGSTSYPDTVKGRFTISRDNAKNTLYLQMSSLKSEDTAIYYCTRHVTVVENSMDYWGQGTSVTVSS
VL: DILLTQSPDILSVSPGERVSFSCRASQSIGTSIHWYQQRTNGSPRLLIKYVSESFSGTPSRFSGSGSGTAFTLTINSVESEDIADYYCQQTHSWPWTFGGGTKLEIK
notes: as for B2
B7: 97A3C2H4 (antibody, V domains shown)
VH: B6 VH
VL: B6 VL
notes: as for B3

Key:
[1] = target: T1, human BLyS (full length, arginine 132 mutated to histidine) on CHO-K1 cells (human, UniProt Q9Y275 1-285); assay: flow cytometry (FACS) on CHO-K1 hBLyS cells, Alexa 488 secondary antibody
T1 construct: also called hBLyS; CHO-K1 hBLyS
T1 sequence (Q9Y275 other isoform, or with tags, fused parts or gaps limits assumed, change not shown): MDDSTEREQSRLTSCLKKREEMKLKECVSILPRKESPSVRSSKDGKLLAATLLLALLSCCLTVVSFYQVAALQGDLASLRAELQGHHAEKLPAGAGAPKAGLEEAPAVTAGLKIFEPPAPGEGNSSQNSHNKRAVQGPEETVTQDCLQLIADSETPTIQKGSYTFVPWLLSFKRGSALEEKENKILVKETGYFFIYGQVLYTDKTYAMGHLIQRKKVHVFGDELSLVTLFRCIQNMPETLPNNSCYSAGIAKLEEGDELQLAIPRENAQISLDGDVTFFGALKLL
Protocol: The medium was aspirated completely, and the cells were rinsed once with PBS buffer (purchased from Invitrogen) and then treated with cell dispersion solution (TrypLE™ Express Enzyme, purchased from Life technology) and collected. The detailed steps are as follows: the cells were rinsed once with PBS buffer, after counting, the cells were diluted to 2×10⁶ cells/ml with PBS buffer, blocked with 2% (w/w) fetal bovine serum and incubated on ice for 30 minutes. 200 μL of which per well was aliquoted into a 96-well FACS plate and centrifuged at 2000 rpm at 4° C., then each 100 μL of the lead antibodies obtained from Embodiment 1 and 2 were aliquoted into each well and incubated on ice for 1 hour. […] After centrifuged and rinsed 3 times with FACS buffer, cells were suspended with 200 μL of FACS buffer and the results were detected and analyzed by FACS (FACS Calibur, purchased from BD). It was shown in Tables 12-13 that the lead antibody could bind to human BLyS protein on the cell surface and the lead antibody could cross-react with cynomolgus BLyS. The data in the table is MFI, the average fluorescence intensity of the cell population.

biotinylated hBLyS-ECD [2] = target: T2, biotinylated hBLyS-ECD (human, UniProt Q9Y275 134-285, biotinylated with Biotin-X-X-NHS (molar ratio 7:1), sites not stated); assay: ELISA, biotinylated hBLyS-ECD captured on streptavidin; antibody 0.0213 nM
T2 construct: The hBLyS-ECD of Embodiment 1 after biotinylation (Embodiment 2); also called biotinylated immunogen; BLyS protein; not shown: His tag of the pCPC vector
T2 sequence (Q9Y275 134-285): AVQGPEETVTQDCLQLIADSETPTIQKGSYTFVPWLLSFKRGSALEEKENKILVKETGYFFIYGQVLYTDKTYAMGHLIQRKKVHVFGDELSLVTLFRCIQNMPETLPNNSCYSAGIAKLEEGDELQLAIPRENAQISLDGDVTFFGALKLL
Protocol: Streptavidin was first diluted to a final concentration of 1.0 μg/mL with PBS, and then 50 μL of diluted streptavidin per well was aliquoted into 96-well ELISA plate, which was subsequently sealed with plastic film and incubated at 4° C. overnight. On the next day the plate was washed four times with the plate washing buffer [PBS buffer containing 0.05% (v/v) Tween20] and added with the blocking solution [PBS buffer containing 0.05% (v/v) Tween20 and 1% (w/w) BSA] and blocked for 2 hours at 37° C. The blocking solution was removed, the biotinylated hBLyS-ECD prepared in Embodiment 2 was diluted with PBS to a final concentration of 50 ng/mL and then aliquoted into the 96-well ELISA plate at 50 μL per well and incubated for 1 hour at 37° C. After rinsing the plate four times with the plate washing buffer [PBS buffer containing 0.05% (v/v) Tween20], 100 μl of the purified lead antibody harvested in Embodiment 1 and 2 was pipetted into each well. After incubation for 1 hour at 37° C., the plate was rinsed four times with the plate washing buffer [PBS buffer containing 0.05% (v/v) Tween20]. HRP-labeled (horseradish peroxidase) secondary antibody (purchased from Sigma) was added in and incubated at 37° C. for 1 hour. The plate was then rinsed four times with the plate washing buffer [PBS buffer containing 0.05% (v/v) Tween20]. 100 μL of TMB substrate was aliquoted into each well and after incubation for 5 minutes at room temperature, 100 μL of stop solution (1.0 N HCl) was aliquoted into each well. A₄₅₀ₙₘ values were read via an ELISA plate reader (SpectraMax M5e purchased from Molecular Devices) and the results were shown in FIGS. 5A-5B and Table 10.

biotinylated hBLyS-ECD [3] = target: T3, biotinylated hBLyS-ECD (human, UniProt Q9Y275 134-285, biotinylated with Biotin-X-X-NHS (molar ratio 7:1); sites not stated); assay: blocking ELISA: biotinylated hBLyS-ECD on coated BAFF R, antibody 0.8 nM
T3 construct: also called biotinylated immunogen; BLyS protein
T3 sequence (Q9Y275 134-285): as above
Protocol: (§1) BAFF R (purchased from R & D Systems) was aliquoted into 96-well ELISA plate at 50 ng per well, and the plate was sealed with plastic film and incubated overnight at 4° C. On the next day the plate was washed four times with the plate washing buffer [PBS buffer containing 0.05% (v/v) Tween20] and added with blocking solution [PBS buffer containing 0.05% (v/v) Tween20 and 1% (w/w) BSA], then blocked for 1 hour at room temperature. The blocking solution was removed and 50 μL per well of the lead antibodies prepared in Embodiment 1 and 2 were added followed by the addition of 50 μL per well of the biotinylated hBLyS-ECD prepared in Embodiment 2. After incubation for 1 hour at 37° C., the plate was washed four times with the plate washing buffer [PBS buffer containing 0.05% (v/v) Tween20]. 100 μL per well of HRP-labeled (horseradish peroxidase) avidin (purchased from Sigma) was added and incubated at 37° C. for 1 hour. The plate was then washed four times with the plate washing buffer [PBS buffer containing 0.05% (v/v) Tween20]. 100 μL of TMB substrate was aliquoted into each well and after incubation for 5 minutes at room temperature, then 100 μL of stop solution (1.0 N HCl) was aliquoted into each well. A₄₅₀ₙₘ values were read with an ELISA plate reader (SpectraMax 384plus, Molecular Device) and the results were shown in FIGS. 9A-9B and Table 15. It was shown in Table 15 that the binding of BLyS protein to its receptor BAFF R could be blocked by the BLyS antibody.

biotinylated hBLyS-ECD [4] = target: T3, biotinylated hBLyS-ECD; assay: blocking ELISA: biotinylated hBLyS-ECD on coated BAFF R, antibody 100 nM
Protocol: as §1

biotinylated hBLyS-ECD [5] = target: T3, biotinylated hBLyS-ECD; assay: blocking ELISA: biotinylated hBLyS-ECD on coated BAFF R, antibody 20 nM
Protocol: as §1

| Binder | EC50 (read off the curve) [1] [nM] | OD450 nm (biotinylated hBLyS-ECD [2]) | OD450 nm (biotinylated hBLyS-ECD [3]) [OD450 nm] | OD450 nm (biotinylated hBLyS-ECD [4]) [OD450 nm] | OD450 nm (biotinylated hBLyS-ECD [5]) [OD450 nm] |
| --- | --- | --- | --- | --- | --- |
| B1 | ~0.3 | 0.181 | – | – | – |
| B2 | – | – | 0.717 | 0.605 | 0.616 |
| B3 | ~0.1 | 0.194 | – | – | – |
| B4 | ~0.2 | 0.262 | – | – | – |
| B5 | – | – | 0.294 | 0.11 | 0.133 |
| B6 | – | – | 0.424 | 0.107 | 0.125 |
| B7 | ~0.3 | 0.283 | – | – | – |
